What was measured:
[1] = target: T1, recombinant PGRMC1 of the surface plasmon resonance analyses (human, UniProt O00264 44-195); assay: SPR; haem-bound PGRMC1
[2] = target: T1, recombinant PGRMC1 of the surface …; assay: SPR; haem-bound PGRMC1; remark: listed apart in the source
HO1 [3] = target: T2, HO1 (Homo sapiens); assay: SPR
T2 chain: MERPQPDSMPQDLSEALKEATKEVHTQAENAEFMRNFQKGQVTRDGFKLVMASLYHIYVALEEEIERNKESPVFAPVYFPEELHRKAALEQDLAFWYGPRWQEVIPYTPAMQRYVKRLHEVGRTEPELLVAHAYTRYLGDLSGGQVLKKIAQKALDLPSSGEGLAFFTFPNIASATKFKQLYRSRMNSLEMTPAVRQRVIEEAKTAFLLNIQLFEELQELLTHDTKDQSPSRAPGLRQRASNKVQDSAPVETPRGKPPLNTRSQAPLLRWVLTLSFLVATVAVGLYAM

HO1 [4] = target: T2, HO1; assay: SPR
Gαi1 [5] = target: Gαi1 (Homo sapiens); assay: SPR
Gαi1 (Homo sapiens), sequence (chain, as listed by the source): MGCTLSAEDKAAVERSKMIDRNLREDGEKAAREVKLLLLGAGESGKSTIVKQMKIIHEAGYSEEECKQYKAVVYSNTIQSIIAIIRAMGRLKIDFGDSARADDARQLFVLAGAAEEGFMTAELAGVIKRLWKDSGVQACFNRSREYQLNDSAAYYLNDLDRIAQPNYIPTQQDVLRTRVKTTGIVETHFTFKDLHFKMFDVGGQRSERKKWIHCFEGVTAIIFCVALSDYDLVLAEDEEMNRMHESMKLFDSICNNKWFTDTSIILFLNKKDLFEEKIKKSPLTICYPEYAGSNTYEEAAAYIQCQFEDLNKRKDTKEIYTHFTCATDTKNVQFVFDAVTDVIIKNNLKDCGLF

Gαi1 [6] = target: Gαi1 (Homo sapiens); assay: SPR; remark: listed apart in the source

T1 sequence (O00264 44-195): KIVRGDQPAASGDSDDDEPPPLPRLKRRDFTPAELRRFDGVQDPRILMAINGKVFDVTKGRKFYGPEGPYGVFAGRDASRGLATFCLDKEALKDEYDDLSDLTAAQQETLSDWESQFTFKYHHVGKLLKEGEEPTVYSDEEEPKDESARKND

B1: recombinant CYP51 (enzyme)
chain: MAAAAGMLLLGLLQAGGSVLGQAMEKVTGGNLLSMLLIACAFTLSLVYLIRLAAGHLVQLPAGVKSPPYIFSPIPFLGHAIAFGKSPIEFLENAYEKYGPVFSFTMVGKTFTYLLGSDAAALLFNSKNEDLNAEDVYSRLTTPVFGKGVAYDVPNPVFLEQKKMLKSGLNIAHFKQHVSIIEKETKEYFESWGESGEKNVFEALSELIILTASHCLHGKEIRSQLNEKVAQLYADLDGGFSHAAWLLPGWLPLPSFRRRDRAHREIKDIFYKAIQKRRQSQEKIDDILQTLLDATYKDGRPLTDDEVAGMLIGLLLAGQHTSSTTSAWMGFFLARDKTLQKKCYLEQKTVCGENLPPLTYDQLKDLNLLDRCIKETLRLRPPIMIMMRMARTPQTVAGYTIPPGHQVCVSPTVNQRLKDSWVERLDFNPDRYLQDNPASGEKFAYVPFGAGRHRCIGENFAYVQIKTIWSTMLRLYEFDLIDGYFPTVNYTTMIHTPENPVIRYKRRSK
- Kd [1]: 5900 nM
- koff [2]: 0.0012 s⁻¹

B2: CPR (protein)
chain: MGDSHVDTSSTVSEAVAEEVSLFSMTDMILFSLIVGLLTYWFLFRKKKEEVPEFTKIQTLTSSVRESSFVEKMKKTGRNIIVFYGSQTGTAEEFANRLSKDAHRYGMRGMSADPEEYDLADLSSLPEIDNALVVFCMATYGEGDPTDNAQDFYDWLQETDVDLSGVKFAVFGLGNKTYEHFNAMGKYVDKRLEQLGAQRIFELGLGDDDGNLEEDFITWREQFWPAVCEHFGVEATGEESSIRQYELVVHTDIDAAKVYMGEMGRLKSYENQKPPFDAKNPFLAAVTTNRKLNQGTERHLMHLELDISDSKIRYESGDHVAVYPANDSALVNQLGKILGADLDVVMSLNNLDEESNKKHPFPCPTSYRTALTYYLDITNPPRTNVLYELAQYASEPSEQELLRKMASSSGEGKELYLSWVVEARRHILAILQDCPSLRPPIDHLCELLPRLQARYYSIASSSKVHPNSVHICAVVVEYETKAGRINKGVATNWLRAKEPAGENGGRALVPMFVRKSQFRLPFKATTPVIMVGPGTGVAPFIGFIQERAWLRQQGKEVGETLLYYGCRRSDEDYLYREELAQFHRDGALTQLNVAFSREQSHKVYVQHLLKQDREHLWKLIEGGAHIYVCGDARNMARDVQNTFYDIVAELGAMEHAQAVDYIKKLMTKGRYSLDVWS
modifications: FAD and FMN cofactors; literature comparison value, construct not given, full length and human species assumed haem state not stated; literature comparison value, the cited study may have used a C-terminally truncated soluble form
- Kd (HO1 [3]): 2400 nM
- koff (HO1 [4]): 0.004 s⁻¹

B3: Neuroglobin (protein)
chain: MERPEPELIRQSWRAVSRSPLEHGTVLFARLFALEPDLLPLFQYNCRQFSSPEDCLSSPEFLDHIRKVMLVIDAAVTNVEDLSSLEEYLASLGRKHRAVGVKLSSFSTVGESLLYMLEKCLGPAFTPATRAAWSQLYGAVVQAMSRGWDGE
modifications: haem b bound (oxidation state not stated); literature comparison value, construct not given; check residues are from general knowledge, not the paper nucleotide state not stated; literature comparison value, construct and species not given; check residues are from general knowledge, not the paper
- Kd (Gαi1 [5]): 600 nM
- koff (Gαi1 [6]): 0.0003 s⁻¹

Reference: publication PMC4802085 (2016)
